How the values were obtained:
[1] = biological target: gastrin releasing peptide receptor (GRP-R), human (human) (UniProt P30550); test: displacement of 125I-universal ligand, human tumour sections
[2] = biological target: neuromedin-B preferring receptor (NMB-R), human (human) (UniProt P28336); test: as above
Sequence of neuromedin-B preferring receptor (NMB-R), human (human) (P28336 whole entry): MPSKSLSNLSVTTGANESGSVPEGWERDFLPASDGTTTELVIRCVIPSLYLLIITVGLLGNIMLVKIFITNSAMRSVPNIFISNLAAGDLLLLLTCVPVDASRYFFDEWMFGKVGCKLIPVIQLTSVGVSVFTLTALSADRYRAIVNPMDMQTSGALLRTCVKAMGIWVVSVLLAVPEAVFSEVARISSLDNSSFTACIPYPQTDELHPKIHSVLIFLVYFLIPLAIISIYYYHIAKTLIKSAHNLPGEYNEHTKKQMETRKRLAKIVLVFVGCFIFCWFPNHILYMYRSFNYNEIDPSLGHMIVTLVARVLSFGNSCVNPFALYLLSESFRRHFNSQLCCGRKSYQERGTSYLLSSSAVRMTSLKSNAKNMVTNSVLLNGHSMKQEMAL

Sequence of gastrin releasing peptide receptor (GRP-R), human (human) (P30550 whole entry): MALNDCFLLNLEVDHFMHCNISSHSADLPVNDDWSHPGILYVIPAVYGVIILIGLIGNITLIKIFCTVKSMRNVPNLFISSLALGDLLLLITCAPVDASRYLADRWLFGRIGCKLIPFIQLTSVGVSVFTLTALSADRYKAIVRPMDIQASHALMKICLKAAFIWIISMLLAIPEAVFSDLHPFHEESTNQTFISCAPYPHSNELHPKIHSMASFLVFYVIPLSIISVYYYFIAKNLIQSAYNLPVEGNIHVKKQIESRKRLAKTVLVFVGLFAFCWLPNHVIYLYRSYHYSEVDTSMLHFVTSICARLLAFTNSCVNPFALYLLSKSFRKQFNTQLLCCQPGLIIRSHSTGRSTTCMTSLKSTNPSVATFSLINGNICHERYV

“[DTyr^6, βAla^11, Phe^13, Nle^14]-BBN(6-14) (peptide)” showed an IC50 [1] of 0.7 nM and an IC50 [2] of 0.8 nM.
